The results in this text go back to the supplement of paper PMC9170038.

Data set [1] concerns MS2 coat protein. Kind of data set: apparent KD of MS2 coat protein, switch ON state; designed switch direction (-1 OFF switch, 1 ON switch): 1; higher = weaker reporter binding. The settings on record: FMN input: 0 or 200 uM; Eterna round: R93 (includes R88 designs). Summed up:
(§1)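 Normalised binding curves from single clusters were fitted, and the median fit for each design is given as apparent KD. The clusters held designed RNA switches transcribed on-chip from Illumina sequencing clusters. These were titrated with SNAP-549-labelled MS2 coat protein (twofold steps from 0.7 or 1.5 nM to 3 µM, 0.8–1.5 h to 10–20 min per step) in 100 mM Tris-HCl pH 7.5, 80 mM KCl, 4 mM MgCl2, without or with constant ligand.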

For data set [2], the system named is MS2 coat protein. Kind of data set: apparent KD of MS2 coat protein, switch OFF state (with FMN for OFF switches, without FMN for ON switches); designed switch direction (-1 OFF switch, 1 ON switch): 1; higher = weaker reporter binding. To be noted: FMN input: 0 or 200 uM; Eterna round: R93 (includes R88 designs). In short, it runs like this: as §1

In the case of “AAAACACAUGAGGAUCACCCAUGUAGAAAUACGGGAGGAUAUGCUAAAACGAAAGACAAUGUAGAAGGCCUAAAAG [saturn 10]”, the “apparent KD of MS2 coat protein” value came out at 0.0377 µM with MS2 coat protein [1] and 0.0596 µM in the data set with MS2 coat protein [2].
With “AAAACACAUGAGGAUCACCCAUGUCAAAAAAACACAGGAUAUCCAAAAAAAAAAAAAAAAGGAGAAGGGUGAAAAA [high kcal]”, the “apparent KD of MS2 coat protein” value in the data set with MS2 coat protein [1] is 0.065 µM; with MS2 coat protein [2] it was 0.042 µM.
With “AAAAGACAUGAGGAUCACCCAUGUAAAAACGUAGGAGGAUAUGUCGUGAAAAAAGACUUGGCAGAAGGCCUGUGUC [SS1 - 39]”, the “apparent KD of MS2 coat protein” value in the data set on MS2 coat protein [1] stood at 0.03 µM; in the data set with MS2 coat protein [2], 0.0505 µM.
Turning to “AAAAGACAUGAGGAUCACCCAUGUAAAGACGUGGGAGGAUAUGUAUGGAAACCAGACUGUACAGAAGGCCUCUGUC [SS1 - 72]”, the “apparent KD of MS2 coat protein” value turned out to be 0.165 µM with MS2 coat protein [1] and 0.243 µM with MS2 coat protein [2].
For “AAAAGACAUGAGGAUCACCCAUGUCAAAACGUAGGAGGAUAUGUAUGGAAACCAUACUGUACAGAAGGCCUUUGUC [SS1 - 77]”, the “apparent KD of MS2 coat protein” value came to 0.014 µM with MS2 coat protein [1] and 0.0142 µM in the data set on MS2 coat protein [2].
For the sequence “AAAAGACAUGAGGAUCACCCAUGUCAAAACGUAGGAGGAUAUGUCGUGAAAAAAGACUUGACAGAAGGCCUGUGUC [SS1 - 36]”, the “apparent KD of MS2 coat protein” value in the data set with MS2 coat protein [1] came out at 0.0158 µM; in the data set on MS2 coat protein [2], 0.0171 µM.
Turning to “AAACCACAUGAGGAUCACCCAUGUAAAAAAAACACAGGAUAUGGAAACACGAAAGUGAAACCAGAAGGGUGAAAAA [77%, Mat - Mod of Eli, 26]”, the “apparent KD of MS2 coat protein” value was 0.0184 µM with MS2 coat protein [1] and 0.0262 µM with MS2 coat protein [2].
For “AAAGAAAAACUAGAGGAUAUUUGAAUGGUAACAUGAGGAUCACCCAUGUGAAGAAAGGAACAUGAGGAGAAGGCUAGAAGAAAAA [JL Nando mod 16]” the same measures were 0.0175 µM and 0.0747 µM.
Take “AAAGAAUGAAGGCAGGAUAUGUGAAAAAAAACAUGAGGAUCACCCAUGUAAUAAAUGGGUACAAAACAGAAGGGCCAAGAAACAA [SS 2 Tesla 3]”: the “apparent KD of MS2 coat protein” value in the data set on MS2 coat protein [1] turned out to be 0.38 µM; in the data set on MS2 coat protein [2], 0.7 µM.
Taken in the same sequence, the figures for “AAAGACAUAGUUCAGGAUAUGGUAAUAGUCACAUGAGGAUCACCCAUGUGCAUUUAUAUGCGCGAUCAGAAGGGAGGUAGAUAAA [SameState2 Malc#17]” were 0.0249 µM and 0.0215 µM.
In the case of “AAAUAAAUGACUCAGGAUAUGUCAGAGAAAACAUGAGGAUCACCCAUGUAAUAAUAACAUGUGUGACAGAAGGGAGUCAAUAAAU [LROPPY Same State 2 - v01_deltaG=.6]”, the results for the “apparent KD of MS2 coat protein” value in the data set with MS2 coat protein [1] and in the data set with MS2 coat protein [2] were 0.0272 µM and 0.015 µM, respectively.
Taken in the same sequence, the figures for “AAAUAAAUGACUGAGGAUAUAUCGAUGAAAACAUGAGGAUCACCCAUGUGAUAAUAAAAAGGGUGAUAGAAGGUAGUCAACAAAC [Mod 11 of Pariah 4 by Hyphema in Round 1]” were 0.0521 µM and 0.211 µM.
With “AAAUAUAAAGACUAGGAUAUACUAAAAUAAACAUGAGGAUCACCCAUGUAAAAAAUAAAACUCAUGUAGAAGGAGUAAAUAUAAA [ss2 10th]”, the “apparent KD of MS2 coat protein” value in the data set on MS2 coat protein [1] amounted to 0.0135 µM; in the data set with MS2 coat protein [2], 0.0155 µM.
Regarding “AAAUGAUCAUGUGAGGAUAUCCAUAAUAAAACAUGAGGAUCACCCAUGUAUAGAUAAUAAUAAUGGGAGAAGGCACAUGAUCAAU [Mat - Same state - Mayanna Mod - D103]”, the “apparent KD of MS2 coat protein” value in the data set with MS2 coat protein [1] is 0.02 µM; in the data set with MS2 coat protein [2], 0.0172 µM.
Regarding “AACAAUCUAUCUGAGGAUAUCAAGUCAAAGACAUGAGGAUCACCCAUGUGCAGGAAAACUGCAUUUGAGAAGGCAGAUAGAUUGA [SS2: 1108]”, the “apparent KD of MS2 coat protein” value is 0.0103 µM with MS2 coat protein [1] and 0.0121 µM in the data set with MS2 coat protein [2].
“AACAAUCUAUCUGAGGAUAUCAUGUCAAAGACAUGAGGAUCACCCAUGUAGCAGGAAACUGCAUAUGAGAAGGCAGAUAGAUUGA [SS2: 1118]”: the “apparent KD of MS2 coat protein” value is 0.0163 µM in the data set with MS2 coat protein [1] and 0.166 µM with MS2 coat protein [2].
As for “AACAAUCUAUCUGAGGAUAUCAUGUCAAAGACAUGAGGAUCACCCAUGUUGCAGGAAACUGCUCAUGAGAAGGCAGAUAGAUUGA [SS2: 1129]”, the “apparent KD of MS2 coat protein” value in the data set on MS2 coat protein [1] is 0.041 µM; in the data set with MS2 coat protein [2], 0.828 µM.
Take “AACAAUCUAUCUGAGGAUAUGAUGUCAAAGACAUGAGGAUCACCCAUGUCCAGGAAAACUGGAUAUCAGAAGGCAGAUAGAUUGA [SS2: 1104]”: the “apparent KD of MS2 coat protein” value in the data set with MS2 coat protein [1] worked out at 0.0102 µM; in the data set on MS2 coat protein [2], 0.0129 µM.
“AACAAUCUAUCUGAGGAUAUGUGUCGAAAGACAUGAGGAUCACCCAUGUAAAAACAUGGAAAAUCACAGAAGGCAGAUAGAUUGA [SS2: 1145]”: the “apparent KD of MS2 coat protein” value in the data set on MS2 coat protein [1] stood at 0.127 µM; in the data set on MS2 coat protein [2], 1.79 µM.
“AACCAACAUGAGGAUCACCCAUGUCAACCCAAGCGAGGAUAUCGGAGAAUAACAAUGGGACGAGAAGGCGCGACCU [ss1-2]”: the “apparent KD of MS2 coat protein” value was determined as 0.0344 µM with MS2 coat protein [1] and 0.0369 µM with MS2 coat protein [2].
“AACCAACAUGAGGAUCACCCAUGUCUACAGGAUUAAGGAUAUGGGCAGGGCUUCCCUGCACUAGAAGGUGAUCCAA [Enonenen]”: the “apparent KD of MS2 coat protein” value in the data set on MS2 coat protein [1] is 0.409 µM; in the data set on MS2 coat protein [2] it was 0.0523 µM.
For “AACUAACAUGAGGAUCACCCAUGUAUUCAAACAUGAGGAUAUAUAACACAUCAUCAACAGAUAGAAGGCAUAAAUA [JR_SS001_Sub1204]” the same measures were 0.093 µM and 0.0823 µM.
On to “AAGAAACAUGAGGAUCACCCAUGUAAAUUCAAGAGAGGAUAUCGUACAUGGAAGAUUCAACGAGAAGGCUCUAGAA [Pariah 3 (MS2 Riboswitches - Same State 1)]”, for which the “apparent KD of MS2 coat protein” value came to 0.0193 µM in the data set with MS2 coat protein [1] and 0.083 µM with MS2 coat protein [2].
With “AAGAAACAUGAGGAUCACCCAUGUAAGAUAAACACAGGAUAUGCGAAAAUAAAUAAAUAAGCAGAAGGGUGAAAAG [Mat - Same State 1 - Tesla mod - 75]”, the “apparent KD of MS2 coat protein” value in the data set with MS2 coat protein [1] turned out to be 0.0199 µM; in the data set with MS2 coat protein [2], 0.0324 µM.
In the case of “AAGAAACAUGAGGAUCACCCAUGUAAGAUAAACACAGGAUAUGCGAAUAAAAUAAAUAAAGCAGAAGGGUGAAGAA [Mat - Same State 1 - Tesla mod - D150]”, the figures for the “apparent KD of MS2 coat protein” value in the data set on MS2 coat protein [1] and in the data set on MS2 coat protein [2] were 0.0171 µM and 0.0343 µM, respectively.
For “AAGAAACAUGAGGAUCACCCAUGUACCCAAAAGGCAGGAUAUGGGAAAGAAAGAAAGAAACCAGAAGGGCCAUGAA [Sogdianus]” the same measures were 0.0301 µM and 0.0571 µM.
Turning to “AAGAAACAUGAGGAUCACCCAUGUGAGAUAAACACAGGAUAUGCGAAAAUAAAUAAAUAAGCAGAAGGGUGAAGAA [Mat - Same State 1 - Tesla mod - 69]”, the “apparent KD of MS2 coat protein” value stood at 0.0302 µM in the data set with MS2 coat protein [1] and 0.0826 µM with MS2 coat protein [2].
For “AAGAACGUGGUGUAGGAUAUACUAAUAGUCACAUGAGGAUCACCCAUGUUCAUAUAUAUGAACGAGUAGAAGGACGACGAAAAAA [Mat - Same state - Malcolm Mod - D107]” the same measures were 0.137 µM and 0.147 µM.
For “AAGACACAUGAGGAUCACCCAUGUCAAGAGAGACGAGGAUAUCUGAAUUAAUUAAAUUAAGGAGAAGGCGUGAAAA [Same State of Confusion2]” the same measures were 0.0231 µM and 0.0581 µM.
For “AAGAGACAUGAGGAUCACCCAUGUAGGAUUAUGGGAGGAUAUACAAAGACGAGAGUCAGAGUAGAAGGCCUAGGAC [salish99-ss1-132(!)]” the same measures were 0.0193 µM and 0.0538 µM.
As for “AAGGCACAUGAGGAUCACCCAUGUUAGCCGCGACGAGGAUAUGGGAACGCGUCAGCGGAAUUAGAAGGUGUGGUGA [Qusoquan]”, the entries for the “apparent KD of MS2 coat protein” value with MS2 coat protein [1] and in the data set with MS2 coat protein [2] were 0.0356 µM and 0.0378 µM, respectively.
Turning to “AAGUCACAUGAGGAUCACCCAUGUCGUAAACGAUGAGGAUAUAGGAAGAAAAAAAAAAAACUAGAAGGUAUUACAA [SameState1-02]”, the “apparent KD of MS2 coat protein” value in the data set on MS2 coat protein [1] is 0.0325 µM; with MS2 coat protein [2], 0.0286 µM.
For the sequence “AAUAAACAUGAGGAUCACCCAUGUACCUACCACUAAGGAUAUGGGCGAAUAACAGCUCGGCCAGAAGGUAGAGGUG [Onususer]”, the “apparent KD of MS2 coat protein” value is 0.116 µM in the data set with MS2 coat protein [1] and 0.0829 µM with MS2 coat protein [2].
On to “AAUAACUAUAGCAAGGAUAUCCGAAACAAGACAUGAGGAUCACCCAUGUAAUAAGACAAAAUAUAGGAGAAGGUGCAGGGUGAAA [JR_SS002_Sub010]”, for which the “apparent KD of MS2 coat protein” value was 0.0753 µM in the data set on MS2 coat protein [1] and 0.116 µM in the data set on MS2 coat protein [2].
Taken in the same sequence, the figures for “AAUAAGACUAGCAAGGAUAUCUAAAACGAAACAUGAGGAUCACCCAUGUAACGAGUACACGUAUCAGAGAAGGUGCAGGGUGAAA [JR_SS002_Sub305]” were 0.0361 µM and 0.0162 µM.
With “AAUACACAUAGUCAGGAUAUCAAAAAUAAGACAUGAGGAUCACCCAUGUAAUAAGUAAAAGUAAAUGAGAAGGGACAGGGUGACC [JR_SS002_Sub403]”, the “apparent KD of MS2 coat protein” value with MS2 coat protein [1] is 1.56 µM; in the data set on MS2 coat protein [2], 0.199 µM.
Taken in the same sequence, the figures for “AAUACCACUAGCAAGGAUAUCUAAAACGAAACAUGAGGAUCACCCAUGUGACGACCACACGUAUCAGAGAAGGUGCAGGGUGAAU [JR_SS002_Sub306]” were 0.0242 µM and 0.024 µM.
Consider “AAUAGACAUGAGGAUCACCCAUGUAGAAUUAUGGGAGGAUAUACAAAGACGAGAGUCAGAGUAGAAGGCCUAGGAG [salish99-ss1-150]”, for which the “apparent KD of MS2 coat protein” value in the data set on MS2 coat protein [1] turned out to be 0.0221 µM; in the data set on MS2 coat protein [2] it was 0.0483 µM.
As for “AAUAUACAUGAGGAUCACCCAUGUAUUAAUAGCUGAGGAUAUACGGGUGAAAAUAGCAUAGUAGAAGGCGGGUGUA [SameState1 Malc#10]”, the “apparent KD of MS2 coat protein” value came out at 0.107 µM in the data set with MS2 coat protein [1] and 0.144 µM in the data set with MS2 coat protein [2].
